Measurements reported in patent publication US20210388097A1 (SORRENTO THERAPEUTICS, published 2021).

Key:
[1] = molecular target: T1, human TACI/TNFRSF13B (CD267) His-tag, from Sino Biological (human, UniProt O14836 1-166, limits assumed); assay: bio-layer interferometry, antibody coupled to AR2G sensor, TACI in solution
T1 construct: Bought protein; not shown: His-tag
T1 sequence (looked up): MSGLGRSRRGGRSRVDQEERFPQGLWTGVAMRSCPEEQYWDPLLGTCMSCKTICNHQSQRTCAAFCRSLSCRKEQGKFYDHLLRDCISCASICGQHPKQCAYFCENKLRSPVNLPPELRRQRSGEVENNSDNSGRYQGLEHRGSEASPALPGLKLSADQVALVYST
Description: (§1) Bio-layer interferometry was used to measure cross-binding between (1) two different anti-BCMA antibodies (BCA7-2C5 or BB C11D5) or a control isotype, and (2) various human antigens including TACI and BAFFR.
(§2) Immobilization of antibody was achieved through standard EDC-catalyzed amide bond formation to create a covalent bond between a reactive amine on the protein and the carboxy-terminated biosensor surface. Briefly, AR2G sensors (OctetRED96e from ForteBio) were activated by EDC-NHS for 6 minutes, then 5 ug/ml antibodies were loaded (BCA7-2C5 antibody, Bluebird C11D5 chimeric antibody, or a human IgG isotype antibody) in 10 mM acetate buffer pH 5.0 for 6 minutes, followed by quenching for 6 minutes with 1M ethanolamine pH 8.5. The 3 minutes baseline step removed any unbound antibody from the biosensor, followed by 1.5 minutes each for association of three analyte proteins TACI (human TACI/TNFRSF13B (CD267) His-tag, from Sino Biological, 1 ug/mL in PBS), BAFFR (human BAFFR/TNFRSF13C (CD268) Fc tag) from Sino Biological, 2 ug/mL in PBS), and human BCMA protein (in-house made with mouse Fc, 2 ug/mL in PBS).

[2] = molecular target: T2, human BAFFR/TNFRSF13C (CD268) Fc tag, from Sino Biological (human, UniProt Q96RJ3 1-71, limits assumed); assay: bio-layer interferometry, antibody coupled to AR2G sensor, BAFFR in solution
T2 construct: Bought protein; not shown: Fc tag
T2 sequence (looked up): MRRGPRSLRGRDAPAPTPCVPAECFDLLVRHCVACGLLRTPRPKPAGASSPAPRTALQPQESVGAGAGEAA
Description: as §1, §2

[3] = molecular target: T3, his-tagged mouse BCMA protein (ACROBiosystems, catalog # BCA-M52H3) (mouse, UniProt O88472 1-49); assay: SPR (Biacore T200), antibody captured on anti-human Fc chip, his-tagged mouse BCMA as analyte
T3 construct: Bought protein; not shown: his tag
T3 chain (looked up): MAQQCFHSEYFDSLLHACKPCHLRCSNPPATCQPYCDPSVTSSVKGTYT
Description: (§3) Binding kinetics of anti-BCMA antibodies with his-tagged human BCMA protein (ACROBiosystems, catalog # BCA-H522y-100 ug, UniProt Q02223-1, SEQ ID NO:92) was measured using surface plasmon resonance (SPR). Kinetic interactions between the antibodies and his-tagged BCMA proteins were measured at 25° C. using Biacore T200 surface plasmon resonance (GE Healthcare). Anti-human fragment crystallizable region (Fc region) antibody was immobilized on a CM5 sensor chip to approximately 8000 resonance units (RU) using standard N-hydroxysuccinimide/N-Ethyl-N′-(3-dimethylaminopropyl) carbodiimide hydrochloride (NHS/EDC) coupling methodology. The anti-BCMA antibody (2 μg/mL) was captured for 60 seconds at a flow rate of 10 μL/minute. The his-tagged BCMA protein was run at […] different dilutions of 3.12, 6.25, 12.5, 25, 50, 100 and 200 nM, in a running buffer of 0.01 M HEPES pH 7.4, 0.15 M NaCl, 3 mM EDTA, 0.05% v/v Surfactant P20 (HBS-EP+). The 25 nM BCMA protein run was measured two times. All measurements were conducted in HBS-EP+ buffer with a flow rate of 30 μL/minute. A 1:1 (Langmuir) binding model was used to fit the data. […]
(§4) Cross reactivity of two of the anti-BCMA antibodies, BCA7-2C5 and BCA7-2E1, with his-tagged human, cynomolgus or mouse BCMA protein were analyzed by SPR in the manner as described above. […]

BCMA on MM1R cells = molecular target: T4, BCMA on MM1R cells (human, UniProt Q02223); assay: flow cytometry on MM1R cells, 5x serial dilution, FITC goat anti-human IgG F(ab')2, GeoMean BL1-H
T4 construct: full length, on the surface of MM1R multiple myeloma cells; also called MM1R multiple myeloma cell line
T4 sequence (receptor, looked up): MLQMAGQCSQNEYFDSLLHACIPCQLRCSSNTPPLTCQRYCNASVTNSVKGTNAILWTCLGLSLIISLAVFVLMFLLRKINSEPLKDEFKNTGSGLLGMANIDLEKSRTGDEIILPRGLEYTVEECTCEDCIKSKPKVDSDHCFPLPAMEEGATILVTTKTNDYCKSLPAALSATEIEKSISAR
From the text: Flow cytometry was used to test antibody binding to multiple myeloma cell line MM1R, using various anti-BCMA antibodies (5× serial dilution) and 80,000 cells per well. The secondary antibody was FITC AffiniPure FAB2 fragment goat anti-human IgG (H+L) (from Jackson Immuno Research). […] A BL-1 detector (IntelliCyt iQue Screener Plus) which detects at 530 nm was used. The geometric mean is reported.

[4] = molecular target: T5, his-tagged cynomolgus BCMA protein (ACROBiosystems, catalog # BCA-052H7) (cynomolgus, UniProt A0A2K5UD97 1-53); assay: SPR (Biacore T200), antibody captured on anti-human Fc chip, his-tagged cynomolgus BCMA as analyte
T5 construct: Bought protein; also called cyno BCMA; not shown: his tag
T5 sequence (A0A2K5UD97 entry or part of it): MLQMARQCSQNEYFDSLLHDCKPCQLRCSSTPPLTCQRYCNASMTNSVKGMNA
Description: as §3, §4

B1: BCA7-2C5 antibody (antibody, V domains shown)
VH: EVQLVESGGGLVKPGGSLRLSCAASGFTSSTAWMSWVRQAPGKGLEWVGRIKSKSDGGTTDYAAPVKGRFTISRDDSKNTLFLQMNSLKTEDTAVYYCAKGGGTYGYWGQGTTVTVSS
VL: QSALTQPASVSGSPGQSVTISCTGTSSAHGGHYYVSWYQQHPGKAPKLMIYDVSNRPSGVSNRFSGSKSGNTASLTISGLQAEDEADYYCGSYTSSGSYVFGTGTKLTVL
In the case of B1, the binding result [1] is reported as “no binding (tested: 1 ug/mL)”, the binding result [2] is reported as “no binding (tested: 2 ug/mL)” and the Kd [3] is reported as 880 nM. For the same binder, the “EC50 (read off the curve)” value (BCMA on MM1R cells) was ~0.08 µg/mL and the Kd [4] was 57 nM.
